Measured values taken from the supplement of paper PMC7877785.
± gives the uncertainty stated by the source.

Assay: self-splicing fitness, log relative to wild type (ln ratio); higher = more splicing; Tetrahymena group I intron in knt gene, E. coli kanamycin selection, DiMSum; sequences stand for … in CUCUCU…GGAGGGAAAAGUUAUCAGGCAUGCACCUGGUAGCUAGUCUUUAAACCAAUAGAUUGCAUCGGUUUAAAAGGCAAGACCGUCAAAUUGCGGGAAAGGGGUCAACAGCCGUUCAGUACCAAGUCUCAGGGGAAACUUUGAGAUGGCCUUGCAAAGGGUAUGGUAAUAAGCUGACGGACAUGGUCCUAACCACGCAGCCAAGUCCUAAGUCAACAGAUCUUCUGUUGAUAUGGAUGCAGUUCACAGACUAAAUGUCGGUCGGGGAAGAUGUAUUCUUCUCAUAAGAUAUAGUCGGACCUCUCCUUAAUGGGAGCUAGCGGAUGAAGUGAUGCAACACUGGAGCCGCUGGGAACUAAUUUGUAUGCGAAAGUAUAUUGAUUAGUUUUGGAGUACUCGUGGUCG
Summary of the method: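 A randomised library covering all eight P1ex-region intron nucleotides was built with the intron in the knt kanamycin-resistance gene on pET-22b(+) and held in E. coli BL21(DE3). Cells were grown overnight at 37°C or 30°C on LB agar, with or without 25 μg/mL kanamycin, plus 100 μg/mL carbenicillin, 50 μM IPTG and 0.2% rhamnose, and pooled colonies were amplicon-sequenced on an Illumina HiSeq 2500. DiMSum fitness is the error-weighted combination of wild-type-normalised replicate fold changes, kanamycin versus none.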

Row | Sequence | self-splicing fitness (ln) (30 °C) | self-splicing fitness (ln) (37 °C)
1 | AAAAAGCAAUAUUACGAGAC | -3.02 ± 0.19 | -2.47 ± 0.24
2 | AAAAAGCAAUAUUACGAGGU | -4.25 ± 0.29 | -3.5 ± 0.23
3 | AAAAAGCAAUAUUACGAUAA | -1.03 ± 0.074 | -1.1 ± 0.093
4 | AAAAAGCAAUAUUACGCGGU | -2.38 ± 0.13 | -0.538 ± 0.11
5 | AAAAAGCAAUAUUACGCUGA | -4.19 ± 0.34 | -1.7 ± 0.17
6 | AAAAAGCAAUAUUACGCUGC | -3.34 ± 0.4 | –
7 | AAAAAGCAAUAUUACGGAAG | -2.88 ± 0.16 | -1.38 ± 0.14
8 | AAAAAGCAAUAUUACGGCAC | -0.499 ± 0.076 | -0.593 ± 0.1
9 | AAAAAGCAAUAUUACGGCCG | -0.279 ± 0.092 | 0.159 ± 0.13
10 | AAAAAGCAAUAUUACGGCUA | -0.166 ± 0.089 | 0.116 ± 0.11
11 | AAAAAGCAAUAUUACGGGGC | -3.33 ± 0.16 | -2.43 ± 0.18
12 | AAAAAGCAAUAUUACGGGUC | -3.39 ± 0.16 | -2.7 ± 0.26
13 | AAAAAGCAAUAUUACGGUAU | -2.2 ± 0.08 | -0.966 ± 0.08
14 | AAAAAGCAAUAUUACGGUCU | -0.167 ± 0.057 | -0.0164 ± 0.073
15 | AAAAAGCAAUAUUACGGUUU | -0.478 ± 0.05 | -0.225 ± 0.064
16 | AAAAAGCAAUAUUACGUCAU | -2.2 ± 0.08 | -1.14 ± 0.092
17 | AAAAAGCAAUAUUACGUCCG | -1.05 ± 0.11 | -0.195 ± 0.13
18 | AAACAGCAAUAUUACGAAAU | -2.72 ± 0.13 | -1.48 ± 0.13
19 | AAACAGCAAUAUUACGAACU | -0.252 ± 0.065 | -0.265 ± 0.077
20 | AAACAGCAAUAUUACGAAGU | -3.41 ± 0.2 | -2.21 ± 0.17
21 | AAACAGCAAUAUUACGAAUA | -2.67 ± 0.14 | -1.1 ± 0.084
22 | AAACAGCAAUAUUACGACAG | -1.5 ± 0.082 | -1.25 ± 0.1
23 | AAACAGCAAUAUUACGACCU | -0.0846 ± 0.062 | -0.604 ± 0.076
24 | AAACAGCAAUAUUACGAUAU | -1.82 ± 0.08 | -0.63 ± 0.097

Row | Sequence | self-splicing fitness (ln) (30 °C) | self-splicing fitness (ln) (37 °C)
25 | AAACAGCAAUAUUACGCAAU | -2.97 ± 0.081 | -1.4 ± 0.076
26 | AAACAGCAAUAUUACGGACA | -1.54 ± 0.092 | -1.1 ± 0.096
27 | AAACAGCAAUAUUACGGAGC | -3.7 ± 0.28 | -2.75 ± 0.22
28 | AAACAGCAAUAUUACGGCGA | -0.923 ± 0.074 | -0.737 ± 0.085
29 | AAACAGCAAUAUUACGGCUG | -3.47 ± 0.25 | -2.07 ± 0.23
30 | AAACAGCAAUAUUACGGGUA | -2.58 ± 0.093 | -1.31 ± 0.072
31 | AAACAGCAAUAUUACGUAAU | -1.79 ± 0.051 | -0.491 ± 0.064
32 | AAACAGCAAUAUUACGUACC | -1.52 ± 0.11 | -0.543 ± 0.12
33 | AAACAGCAAUAUUACGUACU | -0.273 ± 0.06 | -0.159 ± 0.073
34 | AAACAGCAAUAUUACGUGGC | -3.05 ± 0.2 | -2.35 ± 0.14
35 | AAAGAGCAAUAUUACGACCA | -1.98 ± 0.18 | –
36 | AAAGAGCAAUAUUACGAGCG | -2.08 ± 0.21 | -2.17 ± 0.24
37 | AAAGAGCAAUAUUACGAGGA | -2.26 ± 0.31 | -2.6 ± 0.27
38 | AAAGAGCAAUAUUACGAGUA | -3.87 ± 0.46 | -2.58 ± 0.28
39 | AAAGAGCAAUAUUACGAGUU | -3 ± 0.17 | -1.92 ± 0.2
40 | AAAGAGCAAUAUUACGAUAC | – | -2.18 ± 0.41
41 | AAAGAGCAAUAUUACGCCAC | -3.45 ± 0.49 | -2.83 ± 0.47
42 | AAAGAGCAAUAUUACGCGAA | -2.83 ± 0.2 | -1.46 ± 0.24
43 | AAAGAGCAAUAUUACGCGGG | -4.16 ± 0.28 | -3.54 ± 0.33
44 | AAAGAGCAAUAUUACGCUCG | -2.17 ± 0.12 | -0.963 ± 0.12
45 | AAAGAGCAAUAUUACGGCUU | -1.05 ± 0.11 | -0.397 ± 0.14
46 | AAAGAGCAAUAUUACGGUAU | -3.02 ± 0.17 | -2.28 ± 0.15
47 | AAAGAGCAAUAUUACGUAAG | -3.48 ± 0.18 | -2.57 ± 0.22
48 | AAAGAGCAAUAUUACGUACC | -3.04 ± 0.19 | -2.03 ± 0.28

Row | Sequence | self-splicing fitness (ln) (30 °C) | self-splicing fitness (ln) (37 °C)
49 | AAAGAGCAAUAUUACGUCUU | -2.22 ± 0.091 | -1.41 ± 0.1
50 | AAAGAGCAAUAUUACGUUUG | -2.74 ± 0.21 | -1.77 ± 0.22
51 | AAAUAGCAAUAUUACGAAUA | -1.7 ± 0.16 | -1.18 ± 0.15
52 | AAAUAGCAAUAUUACGAAUU | -1.65 ± 0.1 | -0.368 ± 0.12
53 | AAAUAGCAAUAUUACGACGG | -0.995 ± 0.1 | -0.783 ± 0.16
54 | AAAUAGCAAUAUUACGAGUC | -3.89 ± 0.33 | -2.2 ± 0.36
55 | AAAUAGCAAUAUUACGAUUG | -2.16 ± 0.15 | -1.31 ± 0.18
56 | AAAUAGCAAUAUUACGCACG | -1.59 ± 0.13 | -0.271 ± 0.12
57 | AAAUAGCAAUAUUACGCAGG | -1.68 ± 0.12 | -1.65 ± 0.11
58 | AAAUAGCAAUAUUACGCAUC | -3.65 ± 0.47 | -0.111 ± 0.22
59 | AAAUAGCAAUAUUACGCCGA | -2.41 ± 0.19 | -0.837 ± 0.17
60 | AAAUAGCAAUAUUACGCGGG | -3.02 ± 0.19 | -1.23 ± 0.12
61 | AAAUAGCAAUAUUACGGAGA | -1.86 ± 0.23 | -2.11 ± 0.3
62 | AAAUAGCAAUAUUACGGAUC | -1.18 ± 0.11 | -0.569 ± 0.15
63 | AAAUAGCAAUAUUACGGAUG | -2.5 ± 0.16 | -0.984 ± 0.12
64 | AAAUAGCAAUAUUACGGCAA | -0.542 ± 0.071 | 0.146 ± 0.075
65 | AAAUAGCAAUAUUACGGCCA | -0.522 ± 0.15 | -0.523 ± 0.18
66 | AAAUAGCAAUAUUACGGGAU | -2.7 ± 0.099 | -1.03 ± 0.11
67 | AAAUAGCAAUAUUACGGGGA | -3.71 ± 0.25 | -2.86 ± 0.19
68 | AAAUAGCAAUAUUACGGGGC | -3.72 ± 0.32 | -2.34 ± 0.29
69 | AAAUAGCAAUAUUACGGGUG | -1.49 ± 0.11 | -1.65 ± 0.14
70 | AAAUAGCAAUAUUACGGUGA | -1.69 ± 0.13 | -0.521 ± 0.11
71 | AAAUAGCAAUAUUACGUAGU | -3.11 ± 0.099 | -1.79 ± 0.095
72 | AAAUAGCAAUAUUACGUAUA | -1.63 ± 0.12 | -0.558 ± 0.12

Row | Sequence | self-splicing fitness (ln) (30 °C) | self-splicing fitness (ln) (37 °C)
73 | AAAUAGCAAUAUUACGUGGC | -4.1 ± 0.28 | -1.43 ± 0.2
74 | AAAUAGCAAUAUUACGUUUG | -2.04 ± 0.1 | -1.49 ± 0.11
75 | AACAAGCAAUAUUACGAAUA | -1.97 ± 0.1 | -1.24 ± 0.11
76 | AACAAGCAAUAUUACGACCG | -0.711 ± 0.12 | 0.209 ± 0.16
77 | AACAAGCAAUAUUACGACCU | 0.219 ± 0.086 | 0.125 ± 0.1
78 | AACAAGCAAUAUUACGAUCC | -1.13 ± 0.077 | 0.0585 ± 0.1
79 | AACAAGCAAUAUUACGAUGU | -1.64 ± 0.077 | -0.411 ± 0.094
80 | AACAAGCAAUAUUACGCAUC | -2.41 ± 0.15 | -1.77 ± 0.18
81 | AACAAGCAAUAUUACGCGCC | -0.296 ± 0.15 | -0.317 ± 0.18
82 | AACAAGCAAUAUUACGCGGU | -3.69 ± 0.14 | -2.03 ± 0.11
83 | AACAAGCAAUAUUACGCUAU | -2.25 ± 0.075 | -1.52 ± 0.074
84 | AACAAGCAAUAUUACGGACU | -0.217 ± 0.063 | 0.775 ± 0.099
85 | AACAAGCAAUAUUACGGAUA | -3.95 ± 0.2 | -2.18 ± 0.12
86 | AACAAGCAAUAUUACGGAUG | -2.4 ± 0.08 | -2.37 ± 0.096
87 | AACAAGCAAUAUUACGGAUU | -1.38 ± 0.071 | -0.641 ± 0.077
88 | AACAAGCAAUAUUACGGCCC | -0.249 ± 0.12 | -0.0486 ± 0.2
89 | AACAAGCAAUAUUACGGCCU | 0.0767 ± 0.082 | 0.355 ± 0.1
90 | AACAAGCAAUAUUACGGCUU | -1.14 ± 0.081 | -0.539 ± 0.084
91 | AACAAGCAAUAUUACGGGGU | -3.36 ± 0.11 | -2.28 ± 0.13
92 | AACAAGCAAUAUUACGGUCG | -0.247 ± 0.08 | -0.152 ± 0.086
93 | AACAAGCAAUAUUACGGUGA | -0.546 ± 0.059 | -0.765 ± 0.073
94 | AACAAGCAAUAUUACGUACG | -1.65 ± 0.082 | -0.628 ± 0.094
95 | AACAAGCAAUAUUACGUCGC | -3.63 ± 0.14 | -2.21 ± 0.17
96 | AACAAGCAAUAUUACGUCUC | -3.51 ± 0.2 | -1.89 ± 0.16
